From the RNAGym collection of RNA variant scans (doi:10.7554/elife.80360)

B1: Twister Ribozyme (parent)
chain: AACACUGCCAAUGCCGGUCCCAAGCCCGGAUAAAAGUGGAGGGGGCGG

Variants of: B1
Experiment: self-cleavage, relative activity (ratio to wild type); higher = more cleavage; co-transcriptional

Variant | self-cleavage
G24U G47C | 0.131
C25U G48A | 0.559
C25U G48C | 0.881
G24C A40C | 0.141
G24C A40G | 0.0575
C26G A32U | 0.193
C27A | 0.672
C26G G28C | 0.142
C26G G28U | 0.0926
G24U A35G | 0.0925
C25U U31C | 0.61
C26A A33C | 0.359
C26A A33G | 0.257
C26G A35G | 0.16
C26G A35C | 0.319
C25A U37C | 0.0999
G24U G28U | 0.0893
C25U C46U | 0.75
C25U C46A | 0.686
C25U C46G | 0.762
G24U A30U | 0.109
G24U A30G | 0.111
G24A A33U | 0.0989
G24U | 0.128

Variant | self-cleavage
G24A | 0.125
G24C | 0.102
C25A A30U | 0.0882
C26A G36U | 0.091
C26A G36C | 0.105
G24C A35G | 0.0669
G24C A35U | 0.0871
C26U G29C | 0.0821
C26U G29U | 0.204
C25A G42U | 0.0765
C25A G42A | 0.0675
C26A G44C | 0.212
C26U A30G | 0.419
C26U A30C | 0.0974
C26G G38C | 0.202
G24U A34G | 0.189
G24U A34C | 0.101
G24A A30U | 0.0686
G24A A30C | 0.0875
G24A A30G | 0.125
C26A A30U | 0.542
C26A A30C | 0.0881
C25U G43U | 0.182
G24U G41U | 0.0892

Variant | self-cleavage
C25G G43C | 0.124
C25G G43A | 0.122
C25A G36U | 0.0554
C25A G36A | 0.0755
C25G U31A | 0.482
C25G U31C | 0.404
C26A A35C | 0.572
C25A U31A | 0.0924
C25A G43A | 0.0661
C25A G43C | 0.0876
C25A G43U | 0.0941
G24A G38C | 0.106
G24A G38A | 0.101
G24A G39C | 0.0986
C26U U31A | 0.432
C26U U37C | 0.116
C26U U37G | 0.118
G24C C25G | 0.118
G24C C25A | 0.325
G24C U31G | 0.0739
G24C U31C | 0.108
G24U A40C | 0.099
G24U A40U | 0.0893
C25G U37G | 0.104

Variant | self-cleavage
C25G U37A | 0.166
C25G A35G | 0.0857
C25G A35C | 0.182
C26G A30G | 0.214
G24U G38A | 0.0987
G24U G38U | 0.0819
G24A G28U | 0.0869
G24A G28C | 0.0749
G24C A30G | 0.096
G24C A30U | 0.0977
G24C A30C | 0.0817
G24A G47U | 0.0892
G24A G47A | 0.096
C26G C27G | 0.106
C26G C27A | 0.107
C26A U31A | 0.638
C26A U31C | 0.7
C25G A30C | 0.129
G24C G29U | 0.0988
G24C G29A | 0.132
G24U G44C | 0.0809
G24U G44U | 0.097
G24U G44A | 0.127
G24U G42U | 0.0953

Variant | self-cleavage
C26A G45U | 0.136
C26A G45A | 0.258
C25A C26U | 0.0948
C25A C26A | 0.0988
C25A G41U | 0.0916
C25U G39U | 0.158
C25U G39C | 0.117
G24A U37G | 0.0506
G24A U37C | 0.067
C26G A40G | 0.127
C26A G43U | 0.11
C26A G43C | 0.111
C26A G43A | 0.124
G24U G29U | 0.103
G24U G29C | 0.0648
C26U G36U | 0.133
C26U G36A | 0.0777
G24A A34U | 0.0893
G24A A34C | 0.0735
G24A C26U | 0.077
G24U G48C | 0.127
G24U G43A | 0.0702
G24U G43U | 0.0757
C25A C27G | 0.104

Variant | self-cleavage
C25A C27U | 0.136
C25A G47A | 0.102
G24U U31G | 0.13
G24U U31C | 0.13
C26U G39A | 0.118
C25U A33U | 0.822
C25U A33G | 0.853
C25G G41A | 0.146
C25U A30U | 0.932
C25U A30G | 0.911
G24U U37A | 0.0892
C26G A34G | 0.0982
C26G A34U | 0.15
A23U G44C | 0.578
G24U G36U | 0.0805
C26G G39U | 0.103
C26G G39C | 0.119
G24C C26A | 0.0895
G24C C26U | 0.126
G24U G39A | 0.0948
G24U G39C | 0.0634
A23U G47U | 0.163
C25G G39A | 0.101
C26A G38A | 0.143

Variant | self-cleavage
C26A G38U | 0.221
G24A G36C | 0.12
C26A C27G | 0.0974
C26A C27U | 0.0741
C26A G42A | 0.132
C26A G42C | 0.131
C25U A35C | 0.779
C25G G28C | 0.0925
C26G G45C | 0.117
C26G G45A | 0.154
C26G C46U | 0.361
C25G G44A | 0.514
C25U G47U | 0.573
C25G G47C | 0.142
C25G G47A | 0.153
C25G G47U | 0.155
G24A A35C | 0.102
G24A A35U | 0.113
C25U C26A | 0.0893
C25G A34U | 0.158
C25G A34C | 0.115
C25U G36U | 0.123
C25U G36C | 0.15
